From patent publication US20220010003A1 (Boehringer Ingelheim, published 2022)

Legend:
[1] = target: T1, recombinant human periostin (human, UniProt Q15063 22-836); test: binding ELISA, periostin coated
T1 construct: also called HuPOSTN; POSTN
T1 sequence: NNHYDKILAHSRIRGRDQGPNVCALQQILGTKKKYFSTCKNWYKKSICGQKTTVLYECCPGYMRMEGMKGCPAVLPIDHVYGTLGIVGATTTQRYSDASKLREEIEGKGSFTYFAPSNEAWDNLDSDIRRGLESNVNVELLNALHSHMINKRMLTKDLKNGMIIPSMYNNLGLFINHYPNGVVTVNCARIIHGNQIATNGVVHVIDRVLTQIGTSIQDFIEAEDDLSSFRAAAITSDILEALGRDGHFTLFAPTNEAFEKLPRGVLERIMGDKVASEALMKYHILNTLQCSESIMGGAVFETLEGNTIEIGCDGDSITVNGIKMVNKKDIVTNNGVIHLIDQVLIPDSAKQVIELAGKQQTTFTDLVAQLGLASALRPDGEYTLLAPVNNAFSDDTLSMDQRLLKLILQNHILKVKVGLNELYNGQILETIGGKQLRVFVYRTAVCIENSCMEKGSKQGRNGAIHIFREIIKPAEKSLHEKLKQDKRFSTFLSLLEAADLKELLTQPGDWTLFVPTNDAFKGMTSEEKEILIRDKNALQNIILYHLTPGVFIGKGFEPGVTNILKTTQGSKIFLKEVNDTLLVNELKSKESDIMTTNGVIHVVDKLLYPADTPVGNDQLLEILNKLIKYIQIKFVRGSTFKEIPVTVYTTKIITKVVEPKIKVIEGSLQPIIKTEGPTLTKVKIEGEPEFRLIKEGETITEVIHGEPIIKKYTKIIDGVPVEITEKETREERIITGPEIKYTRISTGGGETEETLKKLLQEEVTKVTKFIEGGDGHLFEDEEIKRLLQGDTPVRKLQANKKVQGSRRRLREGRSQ

NB1248 (K302A) = target: T2, NB1248 (K302A) (human, UniProt Q15063 22-631, limits assumed); test: ELISA on alanine variants of POSTN EMI-FAS4, second screen
T2 construct: also called POSTN EMI-FAS4 K302A
T2 sequence: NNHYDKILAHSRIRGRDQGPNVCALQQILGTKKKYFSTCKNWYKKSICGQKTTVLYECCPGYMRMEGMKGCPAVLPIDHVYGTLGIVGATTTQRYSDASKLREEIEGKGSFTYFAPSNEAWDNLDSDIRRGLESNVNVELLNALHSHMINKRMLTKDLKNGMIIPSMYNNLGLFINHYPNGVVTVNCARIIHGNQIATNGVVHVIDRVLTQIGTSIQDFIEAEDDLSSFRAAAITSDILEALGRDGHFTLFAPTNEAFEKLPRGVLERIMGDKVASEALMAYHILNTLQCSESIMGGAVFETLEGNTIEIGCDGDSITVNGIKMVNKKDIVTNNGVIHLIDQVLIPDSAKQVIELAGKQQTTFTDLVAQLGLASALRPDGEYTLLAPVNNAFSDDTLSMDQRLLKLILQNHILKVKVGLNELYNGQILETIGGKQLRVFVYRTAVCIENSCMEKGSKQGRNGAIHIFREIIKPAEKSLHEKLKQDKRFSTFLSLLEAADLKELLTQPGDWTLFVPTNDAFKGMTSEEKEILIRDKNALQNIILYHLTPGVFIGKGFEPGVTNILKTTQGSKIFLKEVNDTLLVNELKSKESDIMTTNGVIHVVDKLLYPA

NB1243 (L287A) = target: T3, NB1243 (L287A) (human, UniProt Q15063 22-631, limits assumed); test: as above
T3 construct: also called POSTN EMI-FAS4 L287A
T3 sequence: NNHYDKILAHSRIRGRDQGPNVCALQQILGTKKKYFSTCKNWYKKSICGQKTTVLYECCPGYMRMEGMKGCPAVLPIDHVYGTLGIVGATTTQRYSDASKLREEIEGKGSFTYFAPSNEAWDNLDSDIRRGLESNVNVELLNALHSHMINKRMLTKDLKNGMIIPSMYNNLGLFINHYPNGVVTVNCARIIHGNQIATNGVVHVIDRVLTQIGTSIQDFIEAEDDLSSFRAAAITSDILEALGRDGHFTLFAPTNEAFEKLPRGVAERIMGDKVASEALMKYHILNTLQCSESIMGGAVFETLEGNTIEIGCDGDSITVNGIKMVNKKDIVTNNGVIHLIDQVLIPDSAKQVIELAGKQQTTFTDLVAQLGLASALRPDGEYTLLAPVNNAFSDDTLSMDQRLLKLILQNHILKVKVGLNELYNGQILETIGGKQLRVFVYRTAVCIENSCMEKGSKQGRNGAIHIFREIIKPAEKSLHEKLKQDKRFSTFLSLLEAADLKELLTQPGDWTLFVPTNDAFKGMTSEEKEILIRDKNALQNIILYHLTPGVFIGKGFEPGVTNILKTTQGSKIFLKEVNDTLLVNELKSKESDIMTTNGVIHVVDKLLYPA

[2] = target: T4, recombinant rat periostin (rat, UniProt A0A8I6AHK0 24-838); test: BLI (Octet Red); Table 6 ties the high end of the range to rat periostin
T4 construct: also called RatPOSTN
Experimental: NB0828's binding affinity was determined across human, mouse, rat, and cyno species. NB0828 affinities were determined using the octet red system. Briefly, anti-human Fc (AHC) biosensors were used to capture NB0828, followed by association of titrating amounts of either recombinant human, mouse, rat, or cyno periostin (100 nM→0 nM; 1:2 dilutions). Recombinant human, mouse, and rat periostin was purchased commercially from R&D systems, whereas cyno periostin was made internally.

B1: NB0828 (antibody, V domains shown)
VH: QVQLVQSGAEVKKPGASVKVSCKASGYTFTSYGISWVRQAPGQGLEWMGWISAYNGNTNYAQKLQGRVTMTTDTSTSTAYMELRSLRSDDTAVYYCARDMLVVPFDYWGQGTLVTVSS
VL: QSVLTQSSSASGTPGQTVTVSCSGSSSDIGSNRVNWYQQLPGTAPKLLIYSNDQRPSGVPDRFSGSKSGTSASLAISGLQSADEADYYCAAWDDSLSTYVFGSGTKVTVL
- EC50 [1]: 0.12 nM
- loss from the max signal (NB1248 (K302A)): > 50%
- loss from the max signal (NB1243 (L287A)): > 50%
- Kd [2]: 0.5 nM
